# Data: US20120282612A1
# Experiments:
# [1] = target: PSA in seminal fluid of normal men (human) (UniProt P07288); assay: MAA-Sepharose column, 5 ng purified PSA applied, 3.5 ng recovered in all fractions
# [2] = target: PSA (prostate specific antigen) in serum of prostate cancer patient (human) (UniProt P07288); assay: TJA-II-Sepharose column, serum of prostate cancer patient 7; total PSA immunoassay of fractions
# [3] = target: PSA (prostate specific antigen) in serum of prostatic hypertrophy patient (human) (UniProt P07288); assay: TJA-II-Sepharose column, serum of prostatic hypertrophy patient 7; total PSA immunoassay of fractions
# [4] = target: PSA (prostate specific antigen) in serum of prostate cancer patient (human) (UniProt P07288); assay: TJA-II-Sepharose column, before sialidase treatment (Table 4 prints 16%)
# [5] = target: PSA (prostate specific antigen) in serum of prostate cancer patient (human) (UniProt P07288); assay: TJA-II-Sepharose column, serum of prostate cancer patient 15; total PSA immunoassay of fractions
# [6] = target: PSA (prostate specific antigen) in serum of prostate cancer patient (human) (UniProt P07288); assay: TJA-II-Sepharose column, serum of prostate cancer patient 6; total PSA immunoassay of fractions
# [7] = target: PSA (prostate specific antigen) in serum of prostatic hypertrophy patient (human) (UniProt P07288); assay: TJA-II-Sepharose column, serum of prostatic hypertrophy patient 4; total PSA immunoassay of fractions
# [8] = target: PSA (prostate specific antigen) in serum of prostatic hypertrophy patient (human) (UniProt P07288); assay: TJA-II-Sepharose column, serum of prostatic hypertrophy patient 3; total PSA immunoassay of fractions
# [9] = target: PSA (prostate specific antigen) in serum of prostate cancer patient (human) (UniProt P07288); assay: TJA-II-Sepharose column, serum of prostate cancer patient 12; total PSA immunoassay of fractions
# [10] = target: Sialidase-treated PSA in seminal fluid of normal men (human) (UniProt P07288); assay: TJA-II-Sepharose column, sialidase-treated sample
# [11] = target: Sialidase-treated PSA in serum of prostate cancer patient (human) (UniProt P07288); assay: TJA-II-Sepharose column, sialidase-treated sample
# [12] = target: Sialidase-treated PSA in serum of prostatic hypertrophy patient (human) (UniProt P07288); assay: TJA-II-Sepharose column, sialidase-treated sample
# [13] = target: PSA (prostate specific antigen) in serum of prostatic hypertrophy patient (human) (UniProt P07288); assay: TJA-II-Sepharose column, serum of prostatic hypertrophy patient 9; total PSA immunoassay of fractions
# [14] = target: PSA (prostate specific antigen) in serum of prostate cancer patient (human) (UniProt P07288); assay: TJA-II-Sepharose column, serum of prostate cancer patient 13; total PSA immunoassay of fractions
# [15] = target: PSA (prostate specific antigen) in serum of prostatic hypertrophy patient (human) (UniProt P07288); assay: TJA-II-Sepharose column, serum of prostatic hypertrophy patient 8; total PSA immunoassay of fractions
# [16] = target: PSA (prostate specific antigen) in serum of prostatic hypertrophy patient (human) (UniProt P07288); assay: TJA-II-Sepharose column, 20 sera of prostatic hypertrophy patients
# [17] = target: PSA (prostate specific antigen) in serum of prostate cancer patient (human) (UniProt P07288); assay: TJA-II-Sepharose column, serum of prostate cancer patient 4; total PSA immunoassay of fractions
# [18] = target: PSA in seminal fluid of normal men (human) (UniProt P07288); assay: TJA-II-Sepharose column, binding rate of PSA
# [19] = target: PSA (prostate specific antigen) in serum of prostatic hypertrophy patient (human) (UniProt P07288); assay: TJA-II-Sepharose column, binding rate of PSA
# [20] = target: PSA (prostate specific antigen) in serum of prostate cancer patient (human) (UniProt P07288); assay: TJA-II-Sepharose column, binding rate of PSA
# [21] = target: PSA (prostate specific antigen) in serum of prostatic hypertrophy patient (human) (UniProt P07288); assay: TJA-II-Sepharose column, serum of prostatic hypertrophy patient 5; total PSA immunoassay of fractions
# [22] = target: PSA (prostate specific antigen) in serum of prostate cancer patient (human) (UniProt P07288); assay: TJA-II-Sepharose column, serum of prostate cancer patient 11; total PSA immunoassay of fractions
# [23] = target: PSA (prostate specific antigen) in serum of prostate cancer patient (human) (UniProt P07288); assay: TJA-II-Sepharose column, serum of prostate cancer patient 1; total PSA immunoassay of fractions
# [24] = target: PSA (prostate specific antigen) in serum of prostate cancer patient (human) (UniProt P07288); assay: TJA-II-Sepharose column, serum of prostate cancer patient 5; total PSA immunoassay of fractions
# [25] = target: PSA (prostate specific antigen) in serum of prostatic hypertrophy patient (human) (UniProt P07288); assay: TJA-II-Sepharose column, serum of prostatic hypertrophy patient 6; total PSA immunoassay of fractions
# [26] = target: PSA (prostate specific antigen) in serum of prostate cancer patient (human) (UniProt P07288); assay: TJA-II-Sepharose column, serum of prostate cancer patient 2; total PSA immunoassay of fractions
# [27] = target: PSA (prostate specific antigen) in serum of prostate cancer patient (human) (UniProt P07288); assay: TJA-II-Sepharose column, serum of prostate cancer patient 10; total PSA immunoassay of fractions
# [28] = target: PSA (prostate specific antigen) in serum of prostate cancer patient (human) (UniProt P07288); assay: TJA-II-Sepharose column, serum of prostate cancer patient 9; total PSA immunoassay of fractions
# [29] = target: PSA (prostate specific antigen) in serum of prostate cancer patient (human) (UniProt P07288); assay: TJA-II-Sepharose column, serum of prostate cancer patient 14; total PSA immunoassay of fractions
# [30] = target: PSA (prostate specific antigen) in serum of prostate cancer patient (human) (UniProt P07288); assay: TJA-II-Sepharose column, serum of prostate cancer patient 8; total PSA immunoassay of fractions
# [31] = target: PSA (prostate specific antigen) in serum of prostatic hypertrophy patient (human) (UniProt P07288); assay: TJA-II-Sepharose column, serum of prostatic hypertrophy patient 2; total PSA immunoassay of fractions
# [32] = target: PSA (prostate specific antigen) in serum of prostate cancer patient (human) (UniProt P07288); assay: TJA-II-Sepharose column, serum of prostate cancer patient 3; total PSA immunoassay of fractions
# [33] = target: PSA (prostate specific antigen) in serum of prostatic hypertrophy patient (human) (UniProt P07288); assay: TJA-II-Sepharose column, serum of prostatic hypertrophy patient 1; total PSA immunoassay of fractions
# [34] = target: PSA (prostate specific antigen) in serum of prostate cancer patient (human) (UniProt P07288); assay: TJA-II-Sepharose column, 20 sera of prostate cancer patients
# [35] = target: PSA (prostate specific antigen) in serum of prostate cancer patient (human) (UniProt P07288); assay: UEA-I agarose column, binding rate of PSA
# [36] = target: PSA (prostate specific antigen) in serum of prostate cancer patient (human) (UniProt P07288); assay: WFA-Sepharose column, serum of prostate cancer patient 12; total PSA immunoassay of fractions
# [37] = target: PSA (prostate specific antigen) in serum of prostate cancer patient (human) (UniProt P07288); assay: WFA-Sepharose column, binding rate of PSA
# [38] = target: PSA (prostate specific antigen) in serum of prostate cancer patient (human) (UniProt P07288); assay: WFA-Sepharose column, serum of prostate cancer patient 15; total PSA immunoassay of fractions
# [39] = target: PSA (prostate specific antigen) in serum of prostate cancer patient (human) (UniProt P07288); assay: WFA-Sepharose column, serum of prostate cancer patient 6; total PSA immunoassay of fractions
# Maackia amurensis agglutinin, sequence (P0DKL3 30-278): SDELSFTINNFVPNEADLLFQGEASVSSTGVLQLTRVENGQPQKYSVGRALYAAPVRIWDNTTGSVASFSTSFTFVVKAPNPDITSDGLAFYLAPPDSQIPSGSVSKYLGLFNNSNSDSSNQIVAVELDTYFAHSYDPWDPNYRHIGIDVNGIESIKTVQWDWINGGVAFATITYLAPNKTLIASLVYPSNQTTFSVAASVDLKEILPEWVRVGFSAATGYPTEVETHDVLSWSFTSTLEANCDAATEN
substance,measurement,setting,value
Maackia amurensis agglutinin,percent considered bound to the column,[1],30%
Trichosanthes japonica agglutinin-II,TJA-II binding ratio,[2],8.2%
same,TJA-II-bound PSA in serum sample,[2],5.58 ng/mL
same,TJA-II binding ratio,[3],< 0.05%
same,binding rate,[4],11%
same,TJA-II binding ratio,[5],5%
same,TJA-II-bound PSA in serum sample,[5],0.61 ng/mL
same,TJA-II binding ratio,[6],10.8%
same,TJA-II-bound PSA in serum sample,[6],388 ng/mL
same,TJA-II binding ratio,[7],0.6%
same,TJA-II-bound PSA in serum sample,[7],0.04 ng/mL
same,TJA-II binding ratio,[8],0.2%
same,TJA-II-bound PSA in serum sample,[8],0.02 ng/mL
same,TJA-II binding ratio,[9],8%
same,TJA-II-bound PSA in serum sample,[9],4.3 ng/mL
same,binding rate,[10],8.4%
same,binding rate,[11],59%
same,binding rate,[12],2%
same,TJA-II binding ratio,[13],< 0.05%
same,TJA-II binding ratio,[14],5%
same,TJA-II-bound PSA in serum sample,[14],0.24 ng/mL
same,TJA-II binding ratio,[15],1%
same,TJA-II-bound PSA in serum sample,[15],0.09 ng/mL
same,TJA-II binding rate,[16],< 2%
same,TJA-II binding ratio,[17],4.5%
same,TJA-II-bound PSA in serum sample,[17],9.5 ng/mL
same,binding rate,[18],2%
same,binding rate,[19],2%
same,binding rate,[20],16%
same,TJA-II binding ratio,[21],1.5%
same,TJA-II-bound PSA in serum sample,[21],0.12 ng/mL
same,TJA-II binding ratio,[22],23%
same,TJA-II-bound PSA in serum sample,[22],1.04 ng/mL
same,TJA-II binding ratio,[23],6.4%
same,TJA-II-bound PSA in serum sample,[23],128 ng/mL
same,TJA-II binding ratio,[24],7%
same,TJA-II-bound PSA in serum sample,[24],6.3 ng/mL
same,TJA-II binding ratio,[25],1.8%
same,TJA-II-bound PSA in serum sample,[25],0.17 ng/mL
same,TJA-II binding ratio,[26],5%
same,TJA-II-bound PSA in serum sample,[26],6.6 ng/mL
same,TJA-II binding ratio,[27],4.6%
same,TJA-II-bound PSA in serum sample,[27],0.46 ng/mL
same,TJA-II binding ratio,[28],14%
same,TJA-II-bound PSA in serum sample,[28],0.84 ng/mL
same,TJA-II binding ratio,[29],4%
same,TJA-II-bound PSA in serum sample,[29],0.85 ng/mL
same,TJA-II binding ratio,[30],21%
same,TJA-II-bound PSA in serum sample,[30],0.9 ng/mL
same,TJA-II binding ratio,[31],< 0.05%
same,TJA-II binding ratio,[32],3%
same,TJA-II-bound PSA in serum sample,[32],2.4 ng/mL
same,TJA-II binding ratio,[33],1.2%
same,TJA-II-bound PSA in serum sample,[33],0.2 ng/mL
same,TJA-II binding rate,[34],> 2%
Ulex europaeus agglutinin-1 (from UniProt P22972 1-243),binding rate,[35],5%
Wisteria floribunda agglutinin,WFA binding ratio,[36],7.5%
same,WFA-bound PSA in serum sample,[36],3.91 ng/mL
same,binding rate,[37],11%
same,WFA binding ratio,[38],4.2%
same,WFA-bound PSA in serum sample,[38],0.49 ng/mL
same,WFA binding ratio,[39],9.4%
same,WFA-bound PSA in serum sample,[39],328 ng/mL
